From the supplement of paper PMC7125110
± gives the standard error. For some assays here: Fewer inactive variants are shown than the library holds.

B1: glmS ribozyme (parent)
chain: AUAAAAGCGCCAGAACUACAGAAAUGUAGUUGACGAGGAGGAGGUUUAUCGAAUUUUCGGCGGAUGCCUCCAAA

What was measured:
Conditions in all cases: with glucosamine-6-phosphate
[1] = variants of: B1; test: self-cleavage kobs at 40 uM GlcN6P; higher = faster cleavage; RNA array
Outline: (§1)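 Barcoded ribozyme variants, transcribed in situ by E. coli RNA polymerase on sequenced MiSeq chips, were followed via a hybridised Cy3 probe at 37 °C. Glucosamine-6-phosphate ranged from 40 μM to 10 mM in HEPES/KCl/Mg(OAc)2 buffer. kobs came from decay fits to per-tile medians, and kcat and KM from weighted Michaelis–Menten fits.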

[2] = variants of: B1; test: self-cleavage kobs at 160 uM GlcN6P; higher = faster cleavage; RNA array
Outline: as §1

[3] = variants of: B1; test: self-cleavage kobs at 640 uM GlcN6P; higher = faster cleavage; RNA array
Outline: as §1

[4] = variants of: B1; test: self-cleavage kobs at 10000 uM GlcN6P; higher = faster cleavage; RNA array
Outline: as §1

[5] = variants of: B1; test: kcat; higher = faster cleavage; RNA array
Outline: as §1

[6] = variants of: B1; test: self-cleavage kobs at 2500 uM GlcN6P; higher = faster cleavage; RNA array
Outline: as §1

[7] = variants of: B1; test: KM; higher = weaker cofactor use; RNA array
Outline: as §1

Variant	self-cleavage kobs at 40 uM GlcN6P [1] [s⁻¹]	self-cleavage kobs at 160 uM GlcN6P [2] [s⁻¹]	self-cleavage kobs at 640 uM GlcN6P [3] [s⁻¹]	self-cleavage kobs at 10000 uM GlcN6P [4] [s⁻¹]	kcat [5] [s⁻¹]	self-cleavage kobs at 2500 uM GlcN6P [6] [s⁻¹]	KM [7] [µM]
A6C A14U G41U C70U	< 1e-05	–	–	–	–	–	–
A33G C61G	< 1e-05	< 1e-05	< 1e-05	< 1e-05	–	–	–
C58U U69G	2.63e-05 ± 1.1e-05	5.15e-05 ± 1.5e-05	6.7e-05 ± 1.6e-05	–	4.53e-05 ± 1.7e-05	7.55e-05 ± 1.9e-05	–
A12U G38C A52G C58A	< 1e-05	–	–	–	–	–	–
A6C A42C	< 1e-05	< 1e-05	< 1e-05	< 1e-05	–	–	–
G13U G51U	< 1e-05	< 1e-05	–	< 1e-05	–	< 1e-05	–
C11U C50U	–	–	–	–	–	–	98.2 ± 43
C8A G43A	< 1e-05	< 1e-05	< 1e-05	–	–	< 1e-05	–
G35C G38C C58A	< 1e-05	< 1e-05	–	–	–	< 1e-05	–
C16G G44U	< 1e-05	< 1e-05	–	2.26e-05 ± 1e-05	–	–	–
A42C U56G	–	–	–	–	–	–	4130 ± 120
G37A U57G	< 1e-05	–	–	–	–	–	–
A12G A52G A53G	–	–	–	–	2.52e-05 ± 7.9e-06	–	–
A48U G63C	< 1e-05	< 1e-05	< 1e-05	< 1e-05	–	< 1e-05	–
A14U C70U	0.000285 ± 2.5e-05	0.000441 ± 6.1e-05	0.00104 ± 0.00018	–	–	0.00724 ± 0.0015	–
U31A G37C	–	–	–	–	3.35e-05 ± 2.7e-06	–	1840 ± 580
G9C A15G C50G G59C C70G	0.00011 ± 3.6e-05	–	–	0.000264 ± 5.3e-05	–	–	–
A15G C16G A33G A52G G60A	< 1e-05	< 1e-05	–	< 1e-05	–	–	–
A42G G60A U65G	< 1e-05	–	–	–	–	< 1e-05	–
G37U U69A	< 1e-05	–	–	< 1e-05	–	–	–
G35U A39G	< 1e-05	< 1e-05	< 1e-05	< 1e-05	–	< 1e-05	–
U31G G51C	–	–	–	–	–	–	210 ± 61
G41C U69C	–	–	–	–	–	–	84.1 ± 23
A15C C50G G62U	4.56e-05 ± 2.2e-05	–	6.39e-05 ± 2.8e-05	–	–	0.000111 ± 3.3e-05	–
A33C G40C	< 1e-05	< 1e-05	< 1e-05	–	–	–	–

Variant	self-cleavage kobs at 40 uM GlcN6P [1] [s⁻¹]	self-cleavage kobs at 160 uM GlcN6P [2] [s⁻¹]	self-cleavage kobs at 640 uM GlcN6P [3] [s⁻¹]	self-cleavage kobs at 10000 uM GlcN6P [4] [s⁻¹]	kcat [5] [s⁻¹]	self-cleavage kobs at 2500 uM GlcN6P [6] [s⁻¹]	KM [7] [µM]
U31A U46A C61U C70U	< 1e-05	–	–	–	–	–	–
C34G G62U	< 1e-05	–	–	< 1e-05	–	< 1e-05	–
C10A G38A A53U C68A	< 1e-05	–	–	–	–	–	–
G35U U54C U56G A64U C70U	< 1e-05	–	–	< 1e-05	–	–	–
A39U C50G C58U	–	–	–	–	1.28e-05 ± 4e-06	–	–
A48C C68A	< 1e-05	–	–	< 1e-05	–	–	–
G51C A52U	< 1e-05	–	< 1e-05	< 1e-05	–	–	–
C11U A42C U56A C68A	< 1e-05	–	–	< 1e-05	–	–	–
U55G C70A	5.03e-05 ± 1.3e-05	5.52e-05 ± 1.4e-05	0.00015 ± 3e-05	0.000131 ± 2.6e-05	0.000145 ± 2.6e-05	0.000147 ± 2.4e-05	–
U30C G66C	–	–	< 1e-05	–	< 1e-05	< 1e-05	347 ± 120
U46C A64G	0.000191 ± 2.5e-05	–	–	0.00537 ± 0.0008	–	–	–
G9A A52U	< 1e-05	< 1e-05	< 1e-05	< 1e-05	–	< 1e-05	–
U47C U49G	–	–	6.46e-05 ± 1.7e-05	0.000169 ± 3.6e-05	0.000198 ± 1.4e-05	0.000146 ± 3.2e-05	1240 ± 220
C8U G35A U45A U69G	–	–	–	–	1.02e-05 ± 2.7e-06	–	–
A6G C58G C61U	< 1e-05	–	–	< 1e-05	–	–	–
A12C A42U A64G	< 1e-05	–	< 1e-05	–	–	–	–
A53G C61G C70U	< 1e-05	–	–	< 1e-05	–	–	–
A12U G40A U45C	6.12e-05 ± 2e-05	–	–	0.00175 ± 0.0003	–	–	–
A6U G62A	< 1e-05	< 1e-05	–	–	–	–	–
A6U C8G A33U C34G U69G	8.53e-05 ± 1.8e-05	–	0.000181 ± 5.7e-05	6.82e-05 ± 1.7e-05	–	–	–
G9U C50U C70U	< 1e-05	–	–	–	–	–	–
G9U A48U C58G C67U	< 1e-05	–	< 1e-05	–	< 1e-05	–	–
C34G U54G	< 1e-05	< 1e-05	< 1e-05	< 1e-05	–	–	–
A1C	0.00111 ± 0.00028	0.00363 ± 0.00095	0.0192 ± 0.0042	0.0709 ± 0.033	–	0.0128 ± 0.0042	–
G13A C61G	–	–	–	–	–	–	127 ± 17
